Reference: the nanobody polyreactivity screen of Harvey et al. (2022)

Assay: yeast display, Sf9 membrane polyspecificity reagent, FACS + sequencing; frameworks hold sequencing errors
Outline: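 Polyreactivity labels are assigned by the sorting gate from which each nanobody was recovered. The gates were low and high (top ~1%), set on anti-HA fluorescence for expression and streptavidin fluorescence for reagent binding. Before sorting, galactose-induced (36–48 hours) yeast display cells were stained for 1 hour at 4 °C with 10% biotinylated, detergent-solubilized Sf9 membrane reagent.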

## QVHHVESGGGLVQAGGSLRLSSAASGSIISYYAMGWSRHAPGKERELVPAINRSGGSTYYADSVKGRFTITRDNAKNTVYLQMNSLKPDDTAVYYCNAVRLYYGAGGQFQYHYWGQGTHVTVSS
  polyreactivity (PSR sort gate): high polyreactivity

## QVQLVESGGGIVQAGGSLRLSCAASGRIFVRYAMGWYRQAPGKERELVAAISKSGGSTYYADSVKGRFTISRENAKNTVYLQMYSLKPEDTAVYYCNALVRRRPGYIRYDYWGQGTQVTVSS
  polyreactivity (PSR sort gate): low polyreactivity

## QVQLVESGGGLVQAGGSLRLSCAASGLTFVYNDMGWYRQAPGKERELVAGITSGGSTSYADSVKGRFTISRDNAKNTVYLQMNSLKPEDTAVYYCAAGVYALRRDYWGQGTQVTVSS
  polyreactivity (PSR sort gate): low polyreactivity

## QVQLVESGGGLVQAGGSLRLSCAASGSTFSRYAMGWYRQAPGKERELVAAISSDGTTYYADSVKGRFTISRDNAKNTVYLQMNSLKPEDTAVYYCAKRGYYRSRRYDYWGQGTQVTVSS
  polyreactivity (PSR sort gate): high polyreactivity

## QFQLVESGGGLVQAGGSLRLSCAASARTFYRYAMGWYRQAPGKERELVASINRGGSTIYADSVKGRFSISRDNAKNTVYLHMNSLKPEDTAVFYCACYCYCYWGQGTQVTVSS
  polyreactivity (PSR sort gate): low polyreactivity

## QVQLVESGAGLVQAGGSILLICAASGLTFYKNAMGWYRQAPAKERELVAVISSSGGSTYYADSVKGRFTISRDNAKNTVYLQMNSLKPEDTAVYYCARDLFTEYRWGLLTYDYWGQGTQVTVSS
  polyreactivity (PSR sort gate): low polyreactivity

## QVQLVESGGGLVQAGGSLRISCAASGRTFALNAMGWYRQAPGKERELVAAISSGGSTYYADSVKGRFTISRDNAKNTVYLQMNSLKPEDTAVYYCAKTSFKYRWSYPVISMDYWGQGTQVTVSS
  polyreactivity (PSR sort gate): high polyreactivity

## QVQLVESGGGLVQAGGSLRLSCAASGSIFFNTMGWYRQAPGKERELVAAISRSGGSTYYADSVKGRFTISRDNAKNTVYLQMNSLKPEDTAVYYCNALRWSQYTYSSRLGHFDSWGQGTQVTVSS
  polyreactivity (PSR sort gate): high polyreactivity

## QVQLVESGGGLVQAGGSLRLSSAASGSTFTLYAMGWYRQAPGKERELVATITGSGGSTNYADSVKGRFTISRDNAKNTVYLQMNSLKPEDTAVYYCAADYAVYSFTEFNYWGQGTQVTVSS
  polyreactivity (PSR sort gate): high polyreactivity

## QVQLVESGGGLVQAGGSLRLSCAASGFTFRLYAMGWYRQAPGKERELVAAISWGGGSTYYADSVKGRFTISRDNAKNTLYLQMNSLKPEDTAVYYCAAYKYGYRYYYWGQGTLVTVSS
  polyreactivity (PSR sort gate): high polyreactivity

## QVQLVESGGGLVQAGGSLRLSCAASGTIFRRSAMGWDRQAPGKERELVATITSTDSTNYADSVKGRFTISRDNAKNTVYLQMNSLKPEDTAVYYCAKRPYHYRRNSEYYYWGQGTQVTVSS
  polyreactivity (PSR sort gate): low polyreactivity

## QVQLVESGGGLVQAGGSLRLSCAASGFTISRYAIGWYRQAPGKERELVAAITGSGGSTYYADSVKGRFTISRDNAKNTVYLQMNSLKPEDTAVYYCNTLKHYKREYDYWGQGTQVTVSS
  polyreactivity (PSR sort gate): high polyreactivity

## QVQLVESGGGLVQAGGSLRLSCAASVRIFGVYAMGWYRQAPGKERELVAAITSGGSTTYADSVKGRFTISRDNAKNTVYLQMNSLKPEDTAVYYCNKEPQPFFLYGYWGQGTQVTVSS
  polyreactivity (PSR sort gate): low polyreactivity

## QVQLVESGGGLVQAGGSLRLSCAASGIIFGDNAMGWYRQATGKERELVAAIDYGDGSTYYADSVKGRFTISRDNENNTVYLQMNRLKPEDTAVYYCNADDGGPGVVLPTKEYDYWGQGTQVTVSS
  polyreactivity (PSR sort gate): low polyreactivity

## QVQLVESGGGLVQAGGSLRLSCAASGRILYPYAMGWYRQAPGKERELVAAITFIGGTTYYADSVKGRFTLSRDNAKNTLYLQRNSLKQEDTAVYYCSTAGPYGSRNDYWGQGTQVTVSS
  polyreactivity (PSR sort gate): high polyreactivity

## QVQLVESGGVLVQAGGILRLSCAASGNIVVYYAMGWSRQAPGKERELVASITTSGGSTYYADSVKGRFTISRDNATNTVYFQMNSLKPEDTAVYYCAALYYYWLYYWGQGTQVTVSW
  polyreactivity (PSR sort gate): low polyreactivity

## QVQLVESGGGLVQAGGSLRLSCAASGSTFSDYVMGWYRQAPGKEREFVDAISWTGGITYYADSVKGRFTISRDNAKNTVYLQMNSLKPEDTAVYYSAAKRKYYGNGYWGQGTQVTVSS
  polyreactivity (PSR sort gate): high polyreactivity

## QVQLVESGGGLVQAGGSLRLSCAASGLTFYSYAMGWYRQAPGKERELVAAISKSGGSTYYADSVKGRFTISRDNAKNSVYLQMNSLKPEDTAVYYCNALTKTGTPPDYDYWGQGTQVTVSS
  polyreactivity (PSR sort gate): high polyreactivity

## QVQLVESGGGLVQAGGSLRLSCAASGFTFSFYAMGWYRQAPGKERELVASISDSDGITFYADSVKGSFTISRDNAKNTVYLPMKSLKPEDTAVYYCAADVAIAIPFSYDYWGQGTQVTVSS
  polyreactivity (PSR sort gate): low polyreactivity

## QVQLVESGGGLVQAGGSLRLSCAASGRIFVYNAMGWYRQAPGKEREFVAAISWDGASTYYADSVKGRFTISRDNAKNTVYLQMNSLKPEDTAVYYCAASYRRKLYNDYWGQGTQVTVSS
  polyreactivity (PSR sort gate): low polyreactivity

## QVQLVESGGGLVQAGGSLRLSCAASGSTFPSYAMGWYRQAPGKERELVAAINSGGGTNYADSVKGRFTISRDNAKNTVYLQINSLKPEDTAVFYCAKSRYDYTKTEGVYWGQGTQVTVSS
  polyreactivity (PSR sort gate): low polyreactivity

## QVQLVESGGGLVQAGGSLRLSCAASGFTFGRIAMGGYRQAPGKERELVASIDWSGGSTYYADSVKGRFTISRDNAKNTVYLQMNSLKPEDTAVYYCAVGPNSVGNRSYGFDYWGQGTQVTVSS
  polyreactivity (PSR sort gate): low polyreactivity

## QVQLVESGGGLVQAGGSLRLSCAASGFIYGRNAMGWYRQAPGKERELVAAINWRGGSTYYADSVKGRFTISRDNAKNTVYLQMNSLKAEDTAVYYCAARAPYRYGYDYWGQGTQVTLSS
  polyreactivity (PSR sort gate): high polyreactivity

## QVQIVESGRGLVQAGGSLRLTCAASGINFHFNDMGWYRQAPRKQRELVAAIDSTGSTNYADSVKGRFTISRDNAKNTVYLQMNSLKPEDTAVYYCAVLNHRVDSVLTRYYYWGQGTQVTVSS
  polyreactivity (PSR sort gate): low polyreactivity

## QVQLVESGGGLVQAGGSLRLSCAASGRTFYPYDLGWYRQEPGKERELVAAIRENGGSTYFADSVKGRFTISRDNAKNTVYLQLTSLKPEDNAVYYCAARNTRYWRYEYWGLGTQVTVSS
  polyreactivity (PSR sort gate): high polyreactivity

## QVQLVESGGGLVQAGGSLRLSCAASGNTFNENAMGWYRQSPGKERELVAAITSSGVSTFYADSVKGRFTISRDNAKNTVYLQMNSLKPEDTAVYYCAAEYYELDEYTGDYWVGSDYWGQGTQVTVSS
  polyreactivity (PSR sort gate): low polyreactivity

## QVQLVESGGGLVQAGGILRLSCAASGSNFAPYAMGWYRQSPGKERELVATISASGGTTYYADSVKGRFTISRDTAKNTVYLQMNSLKPEDTAVYYCNADSNWYYLGNYYGLNDYWGQGTQVTVSS
  polyreactivity (PSR sort gate): low polyreactivity

## QVQLVESGGGLVQAGGSLRLSCAASGSIFAGYAMGWYRQAPGKERELVAVISSTGSTYYADSVKGRFTISRDNAKNTVYLQMNSLKPEDTAVYYCAAGDVGYSYYRIYSRMDYWGQGTQVTVSS
  polyreactivity (PSR sort gate): low polyreactivity

## QVQLVESGGGLVQAGGSLRLSCAASGFTFYKNTMGWYRQAPGKVRELVAAISSSGSSTYYADSVKGRFTISRDNAKNTVYLQMNSLKPEDTAVYYCAAGRFAYHDDYWGQGTHVTVSS
  polyreactivity (PSR sort gate): high polyreactivity

## QVQLVDSRGGLVQAGGSLRLSCSASGSIFPANVMGWYRQAPGKERELVASINSGDDTNYADSVKGRFTISRDNAKNTVYLQMNSLKPEDTAVYYCATGDWYPYGDYIYDYWGQGTQVTVSS
  polyreactivity (PSR sort gate): low polyreactivity

## QVQLVESGGGLVQAGGSLRLSCAASGFTFEDNTMGWYRQAPGKERELVAAITWGGVSTYYADSVKGRFTISRDNAKNTVYLQMNSLKPEDTAVYYCAAEEQVVKAHGDYWGQGTQVTVSS
  polyreactivity (PSR sort gate): low polyreactivity

## QVQLVESGGVLVQAGGRLGLSCAASGSTLRAYAMGWYRQATGKVRELVATISSGGRTYYADSVKGRFTISRDNAKNTVYLQMNSLKPEDTAVYYSAKREHGFFYYTYDYWGQGTQVTVSS
  polyreactivity (PSR sort gate): low polyreactivity

## QVQLVESGGGLVQAGGSLRLSCAASGIIFGYYAMGWYRQAPGKERELVAAISGNGGSTYYADSVKGRFTLSRDNAKITVYLQMNSLKPEDTAVYYCAARRGYRYGPRYDYWGQGTQVTVSS
  polyreactivity (PSR sort gate): high polyreactivity

## QVQLVESGGGLVHAGGSLRLSCAASGSIFDYYALGWYRQAPGKERDLVASINSSVTGTYYADTVKGRFTISRDNAKNSVYLQMNSLKPEDTAVYYCAVKVYGRSGGYEYWGQGTQVTVSS
  polyreactivity (PSR sort gate): low polyreactivity

## QVQLVESGGGLVQAGGSLSLSCAASGRILYSYAMGWYRQAPGKERELVASISLSGGRTYADSVKGRFTISRDNAKNTVYLQMNSLKPEDTAVYYCNARIRTSRYLWPFDYWGQGTQVTVSS
  polyreactivity (PSR sort gate): high polyreactivity

## QVQLVESGGGLVQAGGSLRISCDPSGSTFGQYAMGSYRQAPGKERELVAAINWNGGSTYYADSVKGRFTISRDNAKNTVYLQMNSLKPEDTAVYYCAADPVYYDFDYWGQGTQVTVSS
  polyreactivity (PSR sort gate): low polyreactivity

## QVQLVESGGGLVQAGGSLRLSCAASGSIFVYYAMGWYRQAPGKERELGAAISSTGGRTYYADSVKGRFTISRDNAKNTVYLQMNSLKPEDTAVYYCAKTPTVVEFDYWGQGTQVTVAS
  polyreactivity (PSR sort gate): low polyreactivity

## QVQLVESGGGLVQAGASLRLSCAASGSIFSSYARGWYRPAPGKERELVAVITNGGSTYYADSVKGRFTISRDYAKNTVYLQMNSLKPEDTAVYYCNARWTKGRKYGYWGQGTQVTVSS
  polyreactivity (PSR sort gate): low polyreactivity

## QVQLVESGGGLVQAGGSLRLSCAASGRTFAVYAMGWYRQATGKERELVAAISSGGSTYYADSVKGRFTISRDNAKNTVYLQMNSLKPEDTAVYYCTARWGYRRGYCGQGTQVTVSS
  polyreactivity (PSR sort gate): high polyreactivity

## QVQLVESGGGLVQAGGSLRLSCAASGRIFTWNAMGWYRQAPGKERDLVARISSGTRTNYADSVKGRFTISRDNAKNTVYLQMNSLKPEDTAVYYCAAQSRPPFVKQYWWQRDYWGQGTQVTVSS
  polyreactivity (PSR sort gate): high polyreactivity

## QVQLVESGGGLVQAGGSLRLSCAASGRIFNLYAMGWYRPAPGKERELVAAISWSGGSTYYADSVKGRFTITRDNAKNTVYLQMNSLKPEDTAVYYCKVVSTYKHTYDFDYWGQGTQVTLSS
  polyreactivity (PSR sort gate): high polyreactivity

## QVQLVESGGGLVQAGGSLRLSCAASGIIFEGNAMGWYRQAPGKERELVAAISTSTGRTYYADSVKGRFTISRDNAKNTVYLQMNSLKPEDTAVYYCAAYIRTTRFDYWGQGTQVTVSS
  polyreactivity (PSR sort gate): high polyreactivity

## QVQLVESGGGLVQAGGSLRLSCASSGRTFPGNAMGWYRQAPGKERELVATISSGGTTNYADSVKGRFTISRDNAKNTVYLQMNSLKPDDTAFYYCATDTYHHKADYEYWGQGTQVTLSS
  polyreactivity (PSR sort gate): low polyreactivity
